According to the nanobody polyreactivity screen of Harvey et al. (2022):

Experiment: yeast display, Sf9 membrane polyspecificity reagent, FACS + sequencing; frameworks hold sequencing errors
Summary of the method: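 Genes from sorted yeast were amplified by colony PCR, read by MiSeq 2 × 250 sequencing and filtered on CDR length. These cells carried a synthetic nanobody library in Saccharomyces cerevisiae BJ5465 and were sorted by FACS into low and high (top ~1%) gates on anti-HA and streptavidin fluorescence. Polyreactivity is labelled according to the gate of origin.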

Sequence	polyreactivity (PSR sort gate)
QVQLVESGGGVVQAGGSLRLSCAATGSTFWWYAMGWYRQAPGKERELVADITTGGSTNYADSVKGRFTISRDNAKNTVYLQMNSLKPEDTAVYYCNADGVTPYTWRLRYFKYHFDYWGQGTQVTVSW	low polyreactivity
QVQLVESGGGVVQAGGSLRLSCDASGSTFDTYAMGWYRQAPGKERELVAGNTRRGGRTYYADSVKGRFTISRDNAKNTVYVQMNSLKPEDSAVYYCNALPQRPVGKRDHWGQGTQVTVSS	high polyreactivity
QVQLVESGGGVVQAGGSLRLSGAASGTLDGNAMGWYRPAPGKERELVAAISRCGGRTYYADSVKGRFTISRDNAKNTVYLQMNSQKPEDTAVYYCNTVSKPGYAYNYWGQGTQVTVSS	high polyreactivity
QVQLVESGGGVVQAGGSLRLSSAASGISFAYYAMGWYRQAPGKERELVASITNTGSTYYADSVKGRFTISRDNAKNSVYLEMTSLKPEDTAVYYCNAVLSSNTKWRYPGDDWGQGTQVTVSS	low polyreactivity
QVQLVESGGGVVQAGGSLRLSSAASGYIFRAYAMGWYRQAPGKERELVAAISSRGGSTYFADSVKGRFTISRDNAKNTVYLQMNSLKPEDTAVYYCAAAYRQPYIGYGYWGQGTQVTVSS	high polyreactivity
QVQLVESGGGVVQAGGSLRLSWAASGFIFAVYAMGWYRQSTGKERELVAAITFDGDTTYYADSVKGRFTISRDNANNTVYLQMKILKPDTAVYYCAAEYIKYLWYLHVDYWGQGTQVTVSS	low polyreactivity
QVQLVESGGGVVQAGGSLRLTCAASGFTFARYATGWYRQAPGKERELVAAITYSGGRTYYADSVKGRFTISRDNAKNTVYLHMNSLKPEDTAVYYCAARQYGPRYTYYYWGQGTQVTVSS	high polyreactivity
QVQLVESGGGVVQAGGSLRLTCAASGRTFYVYAMGWYRQAPGKEREFVAAITSSGGSTYYADSVKGRFTISRDNAKNTVYLQMNSLNPEDTAVYYSDAEWSTPSYVGFADGFEYWGQGTQVTVSS	low polyreactivity
QVQLVESGGGVVQAGGSLSLSCAASGFNFNYYAMGWYRPAPGKERELVAISRGGTTNYADSVKGRFTISRDNAKNTVYLQMNSLKPEDTAVYYCAVTGTYYGYSWQSRYKYDYWGQGTQVTVSS	high polyreactivity
QVQLVESGGGVVQAGGTLRLSCAASGRIFSYYDMGWYRQAPGKERELVAAITWGGGATYYADSVKGRFTISRDNAKNTVYLLMNSLKPEDTAVYYCAADWSPSIWEYDYWGQGTQVTVSS	low polyreactivity
QVQLVESGGGYVQAGGSLRLSCAASGRTFLGYDMGWYRQAPGKERELVAAISSSGGSTYYADSVKGRFTISRDNAKNTVYLEMNSLKPEDTAVYYCAKRNRATGASGHRFGYWGQGTHVTVSS	high polyreactivity
QVQLVESGGLLVQAGGSLRLSCAASGSNSYRYDIVWYRQPPGKERELVATIRSGGSTNYADSVKGRFTISRDNAKNTVYLQMNSLKPEDTAVYYCASRLYARKKLHFSADSDYWGQGTQVSVSS	low polyreactivity
QVQLVESGGPLVQAGGSLRLICAASGRTFYYNAKGWYRQAPGKDRELVAAITWSGGGTYYADSVKGRFTISRDNAKNTDYLQMNSLKPEDTAFYYCAAEDWSIEYEYWGQGTQVTVSS	high polyreactivity
QVQLVESGGRIVQAGGSLRLRCAASGSTFHRYAMGRYRQAPGKERELVAAISRSGGSTYYADSVKGRFTISRDTAKNTVYLLMNSLKPVDTAVYYCAADRTGHGFGYWGQGTQVTVSS	high polyreactivity
QVQLVESGGRKVQAGGSLRLSCAASGYTSSRYAMGRYRPAPGKERELVAAISGTGGSTNYADSVKGRFTISRDNAKNNVYLQKNSLKPEDTAVYYCAKRSRTYGTSPYYYWGQGTQVSVSS	high polyreactivity
QVQLVESGGRLFQAGGSLRLSCAASGFTTSAYTKGWYRQAPGKERELVAVISARGGSTSYADSVKGRFTISRDNAKNPVYLQMKCRKPEDTAVFYCAARGRAHWHYDYWGHGTQVTVSS	high polyreactivity
QVQLVESGGRLFQAGGSLRLSCPASGFTFVYNAMGWYRQAPGKERELVATISSGGGRTYYADSVKGRFTISGDNAKNTVSLQKYSQKPEDTAVYYCATVRRTSSGERHEFWGQGTQVTVSS	low polyreactivity
QVQLVESGGRLHQAGGSLRLICAASGSIIATYAMGWYRPAHGKERELVAAITSSDGSTNYADSVKGRFTISRDNAKNTVYLQMNCLTPEDTAVYYCAKDVWRHYLNLYDYWGQGTQVTVSS	low polyreactivity
QVQLVESGGRLVHAGGSLRLSCAASGSTFERNLMGWYSEAPGKERELVAAISRVSSTNYADSVKGRFTISRDNAKNTVYLQMNSVKPEDTAVYSCAADRAGSIMNYWGQGTQVTVSS	low polyreactivity
QVQLVESGGRLVQAGASLRLSCAASGFTFGGYAMGWYRQPHGKQRELVAAIDSSGGRTYNADSVKGRFTISRDNAKNTVYLQMNSLKPEDTAVYYCNAVYGSDGYDYWGQGTQVTVSS	high polyreactivity
QVQLVESGGRLVQAGGRLRLSSAATGLIFYANAMGWYRQAPGKQREFVADISNSGGSTYYADSVKGRFTISRDNAKNTVYLQMNSLKPEDTAVYYCNRVAYKRGYGVRYGGDYDYSGQGTQVTVSS	low polyreactivity

Sequence	polyreactivity (PSR sort gate)
QVQLVESGGRLVQAGGSHRIRCAASGFIFWYYAMGWYRPAPGKERELVAGITTGGSTNYADSVKGRFTISRDNAKNTVYLEMNSLKPEDTAVYYCNADPTYQVGYDYWGQGTQVTVSS	low polyreactivity
QVQLVESGGRLVQAGGSLLLSCAASGRIFDKYAMGWYRQAPGKERELVAAITYIDSGTYYADSVKGRFTISRDNAKNTVYLQMNSLKPEDTAVYYCAARYPSDYDYWGQDTQVTVSS	low polyreactivity
QVQLVESGGRLVQAGGSLRFTCAASGSIFYSYAMGWYRQAPGKERELLAAINYSGSSTYYADSVKGRFTISRDNAKNTVYLQMNSLKPEDTAVYYCAAVIHSQYVDYYYWGQGTQVTVSS	high polyreactivity
QVQLVESGGRLVQAGGSLRIICAASGIIFFHYAMGWYRQAPGKERELVAAITCSGGSTYYADSVKGRFTISRDKAKNTVYLHMNSLKPEDTAVYYGNAVLHRRLYDYWGQGTQVTVSS	high polyreactivity
QVQLVESGGRLVQAGGSLRLICAASGFIFWYYAMGWYRQAPGKERELVADISSGGSTNYADSVKGRFTISRDNAKNTVYLQMNSLKPEDTAVYYCAADTFRRDDYWGQGTQVTVSS	low polyreactivity
QVQLVESGGRLVQAGGSLRLICAASGLIFRAYAMGWYIQAPGKERELVAAISRNGGSTYYADSVKGRFTISRDNAKNTVYLQMNILKPEDTAGYYCNKVSRSSVYQDYYYWGQGTQVTVSS	high polyreactivity
QVQLVESGGRLVQAGGSLRLRCAASGSIFGGYTMGRSRQAPGKERELVAAISRRGGNTYYADSVKGRFTISRDNAKNTVYLQMNSLKPEDTAVYYGAVRWPSARIPVKLDYWGQGTQVSVSS	high polyreactivity
QVQLVESGGRLVQAGGSLRLSCAACGGIIWYNTMGWYRQAPGKERELVAAISDSGGRTSYADSVKGRFTISRDNAKNTVYLQMNSLKPEDTAVYYCNVDYVVSRGFIYRVDYWGQGTQVTVSS	low polyreactivity
QVQLVESGGRLVQAGGSLRLSCAASAITFGHNAMGWYRQAPGKGRELVATISTRGGSTYADSVKGRFTISRDNAKNTVYLQMNSLKPEDTAVYYCAAPAGGYVPYFYEFDYWGQGTQVTVSS	low polyreactivity
QVQLVESGGRLVQAGGSLRLSCAASGFIFAYYSMGWYRKAPGKERELVAAISQSGTSTYYADSLKGRFTISRAKAKNTVYLQMNSLKPVDTAVYYCNAELRDLEYDYWGQGTQVTVSS	low polyreactivity
QVQLVESGGRLVQAGGSLRLSCAASGFIFEDYAMGWYRQAPGKERELVAAITWRGGSTYYADSVKGRFTISRDHAKTTVYLQMNSLKPEDTAVYYCAAEDYWGWRDYWGQGTQVTVSS	high polyreactivity
QVQLVESGGRLVQAGGSLRLSCAASGFIFKLYGMGWYRQAPGKESEMVAAINTSGGRTYYADSVKGRFTISLDNAKNTVYLQMNSLKPEDTAVYYCNTYYSFYGGGYDHWVQGTQVTVSS	high polyreactivity
QVQLVESGGRLVQAGGSLRLSCAASGFTFGHYAMGWSRPARGKEWELVAAIRWSGGSTYYADSVKGRFTISRDNAKNTVYLQMNSLKPEDTAVYYCAARRFDGFEYDYWGDGTQVTVSS	low polyreactivity
QVQLVESGGRLVQAGGSLRLSCAASGFTFPNYAMGWYRQAPGKERELVAAISWSGTSTYYADSVKGRFTISRDNAKNTVYLQMNSLKPEDTAVYDCAAKYQRGGYYESYWLRTGYYWGQGTQVTVSS	high polyreactivity
QVQLVESGGRLVQAGGSLRLSCAASGFTFSEYAMRWYRPAPGKVRELVAAINDGGGSTYYADSVKGRFTISRDNAKNTVYLQMNSLKPEDTAVYYCAVEQRLRYGYDYWGQGTQVTVSS	high polyreactivity
QVQLVESGGRLVQAGGSLRLSCAASGFTFVEYAMGWYRQAPGKERELVAANSRSGSTYYADSVKGRFTISRDNSKNTVYLQMNSLKPEDTAVYYCATLVYRKQYSRYDYWGQGTQVTVSS	high polyreactivity
QVQLVESGGRLVQAGGSLRLSCAASGGIFYYNAMGRYRQAPGKERELVAAIRYRGGSTYYADSVKGRFTISRDNAKNTVYLQMNSLKPEDTAVYYCAADYYRSRYYYWGQGTQVTVSS	low polyreactivity
QVQLVESGGRLVQAGGSLRLSCAASGGTLTSNPMGWYRPAPGKERELVAAINKSGGSTYYADSVKGRFTISRDNAKNTVYLQMNSLKPEDTAVYYCAARFYYWVSGGLVKYNYWGQGTQVTVSS	high polyreactivity
QVQLVESGGRLVQAGGSLRLSCAASGIIFKGYDMGWYRQEHGKVRELVAGITWIVGSTYADSVKGRFTISRDNAKNTVYLQMNSLKPEDTAVYYCNADPELTGYRFLCAEGVEYWGEGTQVTVSS	low polyreactivity
QVQLVESGGRLVQAGGSLRLSCAASGIIFTNYAMGWYRQAPGKERELVAAISSSSGTTYYADSVKGRFTISRDNAKNTVYLQMNSLKPEDTAVYYCAARPVYSTGYPRGRYGYWGQGTQVTVSS	high polyreactivity
